Reference: patent US20240216557A1, “RADIOLIGAND BINDING TO ANTI-DLL3 ANTIBODIES FOR PRETARGETED PET IMAGING AND THERAPEUTIC USES THEREOF” (Memorial Sloan-Kettering Cancer Center, priority 2021, published 2024)

T1: Histidine-tagged DLL3 antigen (DLL3-His) (Homo sapiens, UniProt Q9NYJ7)
T1 construct: corresponding to amino acids Ala27-Ala479 with a C-terminal 6×His tag; made in house; host or cells: HEK293T cells
T1 sequence (Q9NYJ7 27-479): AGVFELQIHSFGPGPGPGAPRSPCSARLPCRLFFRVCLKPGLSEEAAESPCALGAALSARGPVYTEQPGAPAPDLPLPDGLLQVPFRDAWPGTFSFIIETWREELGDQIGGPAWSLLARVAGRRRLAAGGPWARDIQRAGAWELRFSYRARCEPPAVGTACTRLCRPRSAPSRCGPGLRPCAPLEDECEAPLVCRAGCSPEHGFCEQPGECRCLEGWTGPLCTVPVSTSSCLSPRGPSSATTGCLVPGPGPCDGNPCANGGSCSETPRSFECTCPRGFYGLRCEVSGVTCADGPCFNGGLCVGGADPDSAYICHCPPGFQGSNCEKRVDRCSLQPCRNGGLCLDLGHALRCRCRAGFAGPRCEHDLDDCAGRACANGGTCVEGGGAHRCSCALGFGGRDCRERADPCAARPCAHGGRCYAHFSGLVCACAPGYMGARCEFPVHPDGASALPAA

T2: hDLL1 (Homo sapiens, UniProt O00548)
T2 sequence (O00548 18-723): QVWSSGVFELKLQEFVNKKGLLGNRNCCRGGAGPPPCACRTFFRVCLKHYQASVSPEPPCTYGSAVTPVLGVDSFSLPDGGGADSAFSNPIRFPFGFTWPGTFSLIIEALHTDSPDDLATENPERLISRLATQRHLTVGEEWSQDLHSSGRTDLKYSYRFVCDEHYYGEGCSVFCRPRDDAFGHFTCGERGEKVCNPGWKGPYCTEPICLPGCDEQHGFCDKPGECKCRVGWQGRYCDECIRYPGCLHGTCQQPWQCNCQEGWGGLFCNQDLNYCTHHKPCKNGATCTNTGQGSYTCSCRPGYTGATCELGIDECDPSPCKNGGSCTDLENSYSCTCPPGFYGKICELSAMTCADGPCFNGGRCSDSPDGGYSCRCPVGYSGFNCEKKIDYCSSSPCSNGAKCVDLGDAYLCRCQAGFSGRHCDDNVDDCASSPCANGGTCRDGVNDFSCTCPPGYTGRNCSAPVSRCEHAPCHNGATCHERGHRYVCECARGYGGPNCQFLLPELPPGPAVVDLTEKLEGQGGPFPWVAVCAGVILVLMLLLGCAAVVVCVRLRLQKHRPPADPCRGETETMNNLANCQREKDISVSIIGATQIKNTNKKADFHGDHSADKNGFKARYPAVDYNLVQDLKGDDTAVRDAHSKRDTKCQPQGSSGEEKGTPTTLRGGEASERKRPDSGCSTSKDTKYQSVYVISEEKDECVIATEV

B1: E23: anti-DLL3 antibody, VH SEQ ID NO: 119, VL SEQ ID NO: 120 (antibody, V domains shown)
VH: QVQLVQSGAEVRKPGASVKVSCKASGYTFTGYYMHWVRQAPGQGLEWMGWINSYSGGANYAQKFQDRVTMTRDTSVSTASMELSRLRSDDTAVYYCARDGSGWYGSYFDFWGQGTLVTVSS
VL: DIVMTQTPLSSPVTLGQPASISCRSSQSLVHSDGNTYLSWLQQRPGQPPRLLIYKISNRFSGVPDRFSGSGAGTDFTLKISRVEAEDVGFYYCIQTTQFPLTFGGGTKVEIK
B2: L22: anti-DLL3 antibody, VH SEQ ID NO: 17, VL SEQ ID NO: 18 (antibody, V domains shown)
VH: EVQLLESGGGLVQPGGSLRLSCAASGFTFSSYAMGWVRQTPGKGLEWVSTISGRGGDTYYADSVKGRFTISRDNSKNTLYLQMNSLRAEDTAIYYCAKERGLGFDYWGQGTLVTVSS
VL: DIVMTQTPLSLPVTPGEPASISCRSSQSLLDSDDGNTYLDWYLQKPGQSPQLLIYTLSYRASGVPDRFSGSGSGTDFTLKISRVEAEDVGVYYCMQHLEFPLTFGGGTKVEIK
B3: B16-v2: anti-DLL3 antibody, VH SEQ ID NO: 108, VL SEQ ID NO: 113 (antibody, V domains shown)
VH: QVQLVQSGAEVKKPGASVKVSCKASGYTFTSYYMHWVRQAPGQGLEWMGIIDPSGGSTSYAQKFQGRVTMTRDTSTNTVYMDLSSLRSEDTAVYYCARQGRYVGSYLDYWGQGTLVTVSS
VL: DIQMTQSPSSLSASVGDRVTITCRASQGISNYLAWFQQKPGKAPKSVIYAASSLQSGVPSKFSGSGSGTDFTLTISSMQPEDFATYYCQQYNSYPYTFGQGTKLEIK
B4: J8: anti-DLL3 antibody, VH SEQ ID NO: 7, VL SEQ ID NO: 8 (antibody, V domains shown)
VH: QVHLVQSGAEVKKPGASVKVSCKASGYTFTIYYIHWVRQAPGQGLEWMGIINPSGGSTSYAQKFQGRVTMTRDTSTSTVYMELSSLRSEDTAVYYCSGNDYVDYVTTDYYGMDVWGQGTTVTVSS
VL: DIQMTQSPSSLSASVGDRVTITCRASQGISNYLAWFQQKPGKAPKSLIYAASSLQSGVPSKFSGSGSGTDFTLTISSLQPEDFATYYCQQYNSSPYTFGQGTKLEIK
B5: E9: anti-DLL3 antibody, VH SEQ ID NO: 42, VL SEQ ID NO: 43 (antibody, V domains shown)
VH: QVQLVQSGAEVKKPGASVKVSCKASGYTFTSYYMHWVRQAPGQGLEWMGVINSSGGSTSYAQKFQGRVTMTRDTSTSTVYMDLSSLRSEDTAVYYCARGYCTNGVYYDEDFDYWGQGTLVTVSS
VL: DIQMTQSPSSLSASVGDRVTITCRASQGISHYLAWFQQKPGKAPTSLIYAASSLQSGVPSKFSGSGSGTDFTLTISSLQPEDFATYYCQQYNSYPLTFGGGTKVEIK
B6: O24: anti-DLL3 antibody, VH SEQ ID NO: 66, VL SEQ ID NO: 67 (antibody, V domains shown)
VH: QVQLVQSGAEVKKPGASVKVSCKASGYTFTSYYLHWVRQAPGHGLEWMAIINPSGGSTSYAQKFLGRVTMTRDTSTNTVYMELSSLRSEDTAVYYCARERQQLDYYYFAMDVWGQGTTVTVSS
VL: DIQMTQSPSSLSASVGDRVTITCRASQGISNYLAWFQQKPGKAPKSLIYAASSLQSGVPSKFSGSGSGTDFTLTISSLQPEDFATYYCQQYNSYPPTFGQGTKVEIK
B7: G16: anti-DLL3 antibody, VH SEQ ID NO: 157, VL SEQ ID NO: 158 (antibody, V domains shown)
VH: QVQLVQSGAEVKKPGASVQVSCKASGYTFTSYYMHWVRQAPGQGLEWMGIINPSGGSTSYAQKFQGRVTMTRDTSTSTVYMELSSLRSEDTAVYYCARQGGAQWLVLAFDIWGQGTMVTVSS
VL: EIVLTQSPGTLSLSPGERATLSCRASQSVSSYLAWYQQKPGQAPRLLIYGASSRATGIPDRFSGGGSGTDFTLTISRLEPEDFAVYYCQQYGSSPYTFGQGTKLEIK
B8: F9: anti-DLL3 antibody, VH SEQ ID NO: 126, VL SEQ ID NO: 127 (antibody, V domains shown)
VH: QVQLVQSGAEVKKPGASVQVSCKASGYTFTSYYMHWVRQAPGQGLEWMGIINPSGGSTSYAQKFQGRVTMTRDTSTSTVYMELSSLRSEDTAVYYCARQGGAQWLVLAFDIWGQGTMVTVSS
VL: EIVLTQSPGTLSLSPGERATLSCRASQSVSSYLAWYQQKPGQPPRLLIYGASSRATGIPDRFSGGGSGTDFTLTISRLEPEDFAVYYCQQYDSSPYTFGQGTKLEIK
B9: A18: anti-DLL3 antibody, VH SEQ ID NO: 34, VL SEQ ID NO: 35 (antibody, V domains shown)
VH: QVTLRESGPALVKSTQTLTLTCTFSGFSLSTSGMCVSWIRQTPGKALEWLALIDWDDNKYYSTSLKTRLIISKDTSKNQVVLTMTNMEPVDTATYYCARIRGYSGSYDAFDIWGQGTMVTVSS
VL: DIVMTQSPLSLPVTPGEPASISCRSSQSLLHSNGYNYLDWYLQKPGQSPHILLYLGSNRAPGVPDRFSGSGSGTDFTLKISRVEAEDVGVYYCMQALQTPFTFGPGTKVDIK
B10: B22: anti-DLL3 antibody, VH SEQ ID NO: 141, VL SEQ ID NO: 142 (antibody, V domains shown)
VH: EVQLVESGGGLVQPGGSLRLSCAASGFTFNNFWMSWVRQAPGKGLEWVANIKQDGSEKYYVDSVKGRFTISRDNAKNSLYLQMNSLRAEDTAVYYCARESYFDLWGRGTLVTVSS
VL: QAVVTQESALTTSPGETVTLTCRSSTGAVTTSNYANWVQEKPDHLFTGLIGGTNNRAPGVPARFSGSLIGDKAALTITGAQTEDEAIYFCALWYSNRWVFGGGTKLTVL
B11: [^89Zr]Zr-DFO-SC16 (conjugate, chains of the INN, looked up)
VH: QVQLVQSGAEVKKPGASVKVSCKASGYTFTNYGMNWVRQAPGQGLEWMGWINTYTGEPTYADDFKGRVTMTTDTSTSTAYMELRSLRSDDTAVYYCARIGDSSPSDYWGQGTLVTVSS
VL: EIVMTQSPATLSVSPGERATLSCKASQSVSNDVVWYQQKPGQAPRLLIYYASNRYTGIPARFSGSGSGTEFTLTISSLQSEDFAVYYCQQDYTSPWTFGQGTKLEIK
modifications: DFO chelator, 89Zr label
B12: SC16: DLL3-targeting SC16 antibody component of Rova-T (antibody, chains of the INN, looked up, V domains shown)
VH: QVQLVQSGAEVKKPGASVKVSCKASGYTFTNYGMNWVRQAPGQGLEWMGWINTYTGEPTYADDFKGRVTMTTDTSTSTAYMELRSLRSDDTAVYYCARIGDSSPSDYWGQGTLVTVSS
VL: EIVMTQSPATLSVSPGERATLSCKASQSVSNDVVWYQQKPGQAPRLLIYYASNRYTGIPARFSGSGSGTEFTLTISSLQSEDFAVYYCQQDYTSPWTFGQGTKLEIK

Target: T1, Histidine-tagged DLL3 antigen (DLL3-His)
Experiment: Pairwise epitope binning on Carterra array SPR
Details: pairwise competition for binding to DLL3-His, antibodies immobilized on HC200M chip
Description: The panel of purified anti-DLL3 monoclonal antibodies and the reference monoclonal antibody were subjected to pairwise epitope binning on a Carterra® array surface plasmon resonance (SPR) assay platform (Carterra*Inc., Salt Lake City UT) where each monoclonal antibody was tested for the capture of Histidine-tagged DLL3 antigen (DLL3-His), and also for competing with every other antibody in the panel for the binding to DLL3-His. The antibodies were immobilized on a HC200M chip (ligand) through standard amine coupling techniques by the print array method. Then in each cycle antigen was injected across the entire array followed by a single antibody (analyte). At the end of each cycle the surface was regenerated to remove antigen and analyte before a new cycle started.

Compared with B1, B2 is higher in “Epitope Bin” value: 7 for the first, 8 for the second.

B3 and B4 are the same in “Epitope Bin” value: 4 for the first, 4 for the second.

B5 and B6 are the same in “Epitope Bin” value: 4 for the first, 4 for the second.

B7 and B8 are the same in “Epitope Bin” value: 4 for the first, 4 for the second.

First: B9
Second: B10
The “Epitope Bin” value of the first is higher: 6 for the first, 2 for the second.

Target: T2, hDLL1
Experiment: ELISA specificity, hDLL1
Format: binding
Details: not given
Description: Next, affinity, binding domain, and specificity of antibodies including scFv designated as J8, B2, and L22 were analyzed. Affinity, binding domain and specificity of novel human anti-DLL3 antibodies are depicted in Table 30 below.

Compared with B2, B4 is lower in “ELISA hDLL1” value: 0.105 for the first, 0.095 for the second.

Tested on: SCLC xenografts
Experiment: not given
Details: mouse, in vivo, sc; cited from earlier work

For B11, the “time post-injection at which optimal imaging was achieved” value is listed as at least 120.

Tested on: SCLC cells
Experiment: not given
Details: cited from earlier work

For B12, the “internalization by SCLC cells upon binding to DLL3” value is listed as “rapidly internalized”.
